The results in this text go back to US20150368311A1 (Sanofi, published 2015).

Non-standard residues stand in square brackets, D forms with d. No end group written: not given here. Ala(4-thiazolyl) = N[C@@H](Cc1cscn1)C(=O)O; 1Nal = N[C@@H](Cc1cccc2ccccc12)C(=O)O; Nle = CCCC[C@H](N)C(=O)O

Common to all, as to test: cell-based or functional assay
For test [1], the target named is T1, human GLP-1 receptor (human, UniProt P43220 24-463).
For test [2], the target named is T2, human glucagon receptor (human, UniProt P47871 26-477).
T2 sequence (P47871 26-477): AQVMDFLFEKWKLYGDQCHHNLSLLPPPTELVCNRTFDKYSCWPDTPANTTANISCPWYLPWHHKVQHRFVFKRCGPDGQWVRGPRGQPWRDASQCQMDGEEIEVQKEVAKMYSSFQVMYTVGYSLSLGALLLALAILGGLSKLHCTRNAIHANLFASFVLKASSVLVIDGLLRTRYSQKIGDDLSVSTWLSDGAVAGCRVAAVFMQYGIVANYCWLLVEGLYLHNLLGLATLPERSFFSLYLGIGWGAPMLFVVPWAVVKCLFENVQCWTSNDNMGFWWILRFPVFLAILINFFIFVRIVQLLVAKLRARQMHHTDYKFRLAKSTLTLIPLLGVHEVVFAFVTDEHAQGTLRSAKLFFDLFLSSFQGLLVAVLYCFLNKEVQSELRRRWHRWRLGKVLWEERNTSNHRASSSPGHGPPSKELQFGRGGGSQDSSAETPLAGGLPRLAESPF
Test [3] addresses T1, human GLP-1 receptor. This is another data set of the same source.
In test [4] the target is T2, human glucagon receptor. The source holds these as a separate data set.

B1: SEQ ID NO: 8 (peptide)
peptide: [Ala(4-thiazolyl)]SQGTFTSDISKQLESRRAQEFIEWLLATGPESGAPPPS-OH
modifications: N-terminus assumed
SMILES: CC[C@H](C)[C@H](NC(=O)[C@H](Cc1ccccc1)NC(=O)[C@H](CCC(=O)O)NC(=O)[C@H](CCC(N)=O)NC(=O)[C@H](C)NC(=O)[C@H](CCCNC(=N)N)NC(=O)[C@H](CCCNC(=N)N)NC(=O)[C@H](CO)NC(=O)[C@H](CCC(=O)O)NC(=O)[C@H](CC(C)C)NC(=O)[C@H](CCC(N)=O)NC(=O)[C@H](CCCCN)NC(=O)[C@H](CO)NC(=O)[C@@H](NC(=O)[C@H](CC(=O)O)NC(=O)[C@H](CO)NC(=O)[C@@H](NC(=O)[C@H](Cc1ccccc1)NC(=O)[C@@H](NC(=O)CNC(=O)[C@H](CCC(N)=O)NC(=O)[C@H](CO)NC(=O)[C@@H](N)Cc1cscn1)[C@@H](C)O)[C@@H](C)O)[C@@H](C)CC)C(=O)N[C@@H](CCC(=O)O)C(=O)N[C@@H](Cc1c[nH]c2ccccc12)C(=O)N[C@@H](CC(C)C)C(=O)N[C@@H](CC(C)C)C(=O)N[C@@H](C)C(=O)N[C@H](C(=O)NCC(=O)N1CCC[C@H]1C(=O)N[C@@H](CCC(=O)O)C(=O)N[C@@H](CO)C(=O)NCC(=O)N[C@@H](C)C(=O)N1CCC[C@H]1C(=O)N1CCC[C@H]1C(=O)N1CCC[C@H]1C(=O)N[C@@H](CO)C(=O)O)[C@@H](C)O
In the case of B1, in test [1], the “EC50 hGLP-1 R [pM], cAMP formation” value was 5800 pM. In addition, the “EC50 hGLUC R [pM], cAMP formation” value in test [2] was 2.2 pM. In addition, the “EC50 hGLP-1R, cAMP formation” value in test [3] is 5.8 nM. Moreover, the “EC50 hGlucagon-R, cAMP formation” value in test [4] was 0.0022 nM.

B2: SEQ ID NO: 5 (peptide)
peptide: [Ala(4-thiazolyl)]SQGTFTSDYSKQLESRRAQEFIEWLLAGGPESGAPPPS-OH
modifications: N-terminus assumed
SMILES: CC[C@H](C)[C@H](NC(=O)[C@H](Cc1ccccc1)NC(=O)[C@H](CCC(=O)O)NC(=O)[C@H](CCC(N)=O)NC(=O)[C@H](C)NC(=O)[C@H](CCCNC(=N)N)NC(=O)[C@H](CCCNC(=N)N)NC(=O)[C@H](CO)NC(=O)[C@H](CCC(=O)O)NC(=O)[C@H](CC(C)C)NC(=O)[C@H](CCC(N)=O)NC(=O)[C@H](CCCCN)NC(=O)[C@H](CO)NC(=O)[C@H](Cc1ccc(O)cc1)NC(=O)[C@H](CC(=O)O)NC(=O)[C@H](CO)NC(=O)[C@@H](NC(=O)[C@H](Cc1ccccc1)NC(=O)[C@@H](NC(=O)CNC(=O)[C@H](CCC(N)=O)NC(=O)[C@H](CO)NC(=O)[C@@H](N)Cc1cscn1)[C@@H](C)O)[C@@H](C)O)C(=O)N[C@@H](CCC(=O)O)C(=O)N[C@@H](Cc1c[nH]c2ccccc12)C(=O)N[C@@H](CC(C)C)C(=O)N[C@@H](CC(C)C)C(=O)N[C@@H](C)C(=O)NCC(=O)NCC(=O)N1CCC[C@H]1C(=O)N[C@@H](CCC(=O)O)C(=O)N[C@@H](CO)C(=O)NCC(=O)N[C@@H](C)C(=O)N1CCC[C@H]1C(=O)N1CCC[C@H]1C(=O)N1CCC[C@H]1C(=O)N[C@@H](CO)C(=O)O
Take B2: in test [1], the “EC50 hGLP-1 R [pM], cAMP formation” value amounted to 2190 pM. The “EC50 hGLUC R [pM], cAMP formation” value in test [2] worked out at 0.6 pM. Further, the “EC50 hGLP-1R, cAMP formation” value in test [3] worked out at 2.19 nM. Also, the “EC50 hGlucagon-R, cAMP formation” value in test [4] was 0.0006 nM.

B3: SEQ ID NO: 33 (peptide)
peptide: HSQGTFTSD[1Nal]SKQLESRRAQEFIEWLLATGPESGAPPPS-OH
modifications: N-terminus assumed
SMILES: CC[C@H](C)[C@H](NC(=O)[C@H](Cc1ccccc1)NC(=O)[C@H](CCC(=O)O)NC(=O)[C@H](CCC(N)=O)NC(=O)[C@H](C)NC(=O)[C@H](CCCNC(=N)N)NC(=O)[C@H](CCCNC(=N)N)NC(=O)[C@H](CO)NC(=O)[C@H](CCC(=O)O)NC(=O)[C@H](CC(C)C)NC(=O)[C@H](CCC(N)=O)NC(=O)[C@H](CCCCN)NC(=O)[C@H](CO)NC(=O)[C@H](Cc1cccc2ccccc12)NC(=O)[C@H](CC(=O)O)NC(=O)[C@H](CO)NC(=O)[C@@H](NC(=O)[C@H](Cc1ccccc1)NC(=O)[C@@H](NC(=O)CNC(=O)[C@H](CCC(N)=O)NC(=O)[C@H](CO)NC(=O)[C@@H](N)Cc1c[nH]cn1)[C@@H](C)O)[C@@H](C)O)C(=O)N[C@@H](CCC(=O)O)C(=O)N[C@@H](Cc1c[nH]c2ccccc12)C(=O)N[C@@H](CC(C)C)C(=O)N[C@@H](CC(C)C)C(=O)N[C@@H](C)C(=O)N[C@H](C(=O)NCC(=O)N1CCC[C@H]1C(=O)N[C@@H](CCC(=O)O)C(=O)N[C@@H](CO)C(=O)NCC(=O)N[C@@H](C)C(=O)N1CCC[C@H]1C(=O)N1CCC[C@H]1C(=O)N1CCC[C@H]1C(=O)N[C@@H](CO)C(=O)O)[C@@H](C)O
On to B3, for which the “EC50 hGLP-1R, cAMP formation” value in test [3] was determined as 0.159 nM. In addition, the “EC50 hGlucagon-R, cAMP formation” value in test [4] worked out at 0.0011 nM.
For HSQGTFTSDLSKQLESRRAQDFIEWLLATGPESGAPPPS-OH [SEQ ID NO: 35] the same measures were 0.934 nM and 0.0071 nM.

B4: SEQ ID NO: 6 (peptide)
peptide: [Ala(4-thiazolyl)]SQGTFTSDYSKQLESRRAQEFIEWLLATGPESGAPPPS-OH
modifications: N-terminus assumed
SMILES: CC[C@H](C)[C@H](NC(=O)[C@H](Cc1ccccc1)NC(=O)[C@H](CCC(=O)O)NC(=O)[C@H](CCC(N)=O)NC(=O)[C@H](C)NC(=O)[C@H](CCCNC(=N)N)NC(=O)[C@H](CCCNC(=N)N)NC(=O)[C@H](CO)NC(=O)[C@H](CCC(=O)O)NC(=O)[C@H](CC(C)C)NC(=O)[C@H](CCC(N)=O)NC(=O)[C@H](CCCCN)NC(=O)[C@H](CO)NC(=O)[C@H](Cc1ccc(O)cc1)NC(=O)[C@H](CC(=O)O)NC(=O)[C@H](CO)NC(=O)[C@@H](NC(=O)[C@H](Cc1ccccc1)NC(=O)[C@@H](NC(=O)CNC(=O)[C@H](CCC(N)=O)NC(=O)[C@H](CO)NC(=O)[C@@H](N)Cc1cscn1)[C@@H](C)O)[C@@H](C)O)C(=O)N[C@@H](CCC(=O)O)C(=O)N[C@@H](Cc1c[nH]c2ccccc12)C(=O)N[C@@H](CC(C)C)C(=O)N[C@@H](CC(C)C)C(=O)N[C@@H](C)C(=O)N[C@H](C(=O)NCC(=O)N1CCC[C@H]1C(=O)N[C@@H](CCC(=O)O)C(=O)N[C@@H](CO)C(=O)NCC(=O)N[C@@H](C)C(=O)N1CCC[C@H]1C(=O)N1CCC[C@H]1C(=O)N1CCC[C@H]1C(=O)N[C@@H](CO)C(=O)O)[C@@H](C)O
As to B4, the “EC50 hGLP-1 R [pM], cAMP formation” value in test [1] stood at 9300 pM. The “EC50 hGLUC R [pM], cAMP formation” value in test [2] was found to be 0.5 pM. The “EC50 hGLP-1R, cAMP formation” value in test [3] was determined as 9.3 nM. Moreover, the “EC50 hGlucagon-R, cAMP formation” value in test [4] came to 0.0005 nM.
HSQGTFTSDLSKQLESRRAQEFIEWLLATGPESGAPPPS-OH [SEQ ID NO: 34]: the “EC50 hGLP-1R, cAMP formation” value in test [3] was determined as 0.363 nM. The “EC50 hGlucagon-R, cAMP formation” value in test [4] came to 0.0014 nM.

B5: SEQ ID NO: 36 (peptide)
peptide: HSQGTFTSDLSKQ[Nle]ESRRAQEFIEWLLATGPESGAPPPS-OH
modifications: N-terminus assumed
SMILES: CCCC[C@H](NC(=O)[C@H](CCC(N)=O)NC(=O)[C@H](CCCCN)NC(=O)[C@H](CO)NC(=O)[C@H](CC(C)C)NC(=O)[C@H](CC(=O)O)NC(=O)[C@H](CO)NC(=O)[C@@H](NC(=O)[C@H](Cc1ccccc1)NC(=O)[C@@H](NC(=O)CNC(=O)[C@H](CCC(N)=O)NC(=O)[C@H](CO)NC(=O)[C@@H](N)Cc1c[nH]cn1)[C@@H](C)O)[C@@H](C)O)C(=O)N[C@@H](CCC(=O)O)C(=O)N[C@@H](CO)C(=O)N[C@@H](CCCNC(=N)N)C(=O)N[C@@H](CCCNC(=N)N)C(=O)N[C@@H](C)C(=O)N[C@@H](CCC(N)=O)C(=O)N[C@@H](CCC(=O)O)C(=O)N[C@@H](Cc1ccccc1)C(=O)N[C@H](C(=O)N[C@@H](CCC(=O)O)C(=O)N[C@@H](Cc1c[nH]c2ccccc12)C(=O)N[C@@H](CC(C)C)C(=O)N[C@@H](CC(C)C)C(=O)N[C@@H](C)C(=O)N[C@H](C(=O)NCC(=O)N1CCC[C@H]1C(=O)N[C@@H](CCC(=O)O)C(=O)N[C@@H](CO)C(=O)NCC(=O)N[C@@H](C)C(=O)N1CCC[C@H]1C(=O)N1CCC[C@H]1C(=O)N1CCC[C@H]1C(=O)N[C@@H](CO)C(=O)O)[C@@H](C)O)[C@@H](C)CC
Consider B5, for which the “EC50 hGLP-1R, cAMP formation” value in test [3] amounted to 0.358 nM. Also, the “EC50 hGlucagon-R, cAMP formation” value in test [4] was 0.0014 nM.

B6: SEQ ID NO: 7 (peptide)
peptide: [Ala(4-thiazolyl)]SQGTFTSDVSKQLESRRAQEFIEWLLATGPESGAPPPS-OH
modifications: N-terminus assumed
SMILES: CC[C@H](C)[C@H](NC(=O)[C@H](Cc1ccccc1)NC(=O)[C@H](CCC(=O)O)NC(=O)[C@H](CCC(N)=O)NC(=O)[C@H](C)NC(=O)[C@H](CCCNC(=N)N)NC(=O)[C@H](CCCNC(=N)N)NC(=O)[C@H](CO)NC(=O)[C@H](CCC(=O)O)NC(=O)[C@H](CC(C)C)NC(=O)[C@H](CCC(N)=O)NC(=O)[C@H](CCCCN)NC(=O)[C@H](CO)NC(=O)[C@@H](NC(=O)[C@H](CC(=O)O)NC(=O)[C@H](CO)NC(=O)[C@@H](NC(=O)[C@H](Cc1ccccc1)NC(=O)[C@@H](NC(=O)CNC(=O)[C@H](CCC(N)=O)NC(=O)[C@H](CO)NC(=O)[C@@H](N)Cc1cscn1)[C@@H](C)O)[C@@H](C)O)C(C)C)C(=O)N[C@@H](CCC(=O)O)C(=O)N[C@@H](Cc1c[nH]c2ccccc12)C(=O)N[C@@H](CC(C)C)C(=O)N[C@@H](CC(C)C)C(=O)N[C@@H](C)C(=O)N[C@H](C(=O)NCC(=O)N1CCC[C@H]1C(=O)N[C@@H](CCC(=O)O)C(=O)N[C@@H](CO)C(=O)NCC(=O)N[C@@H](C)C(=O)N1CCC[C@H]1C(=O)N1CCC[C@H]1C(=O)N1CCC[C@H]1C(=O)N[C@@H](CO)C(=O)O)[C@@H](C)O
For B6, the “EC50 hGLP-1 R [pM], cAMP formation” value in test [1] worked out at 4190 pM. In test [2], the “EC50 hGLUC R [pM], cAMP formation” value amounted to 2.4 pM. Further, the “EC50 hGLP-1R, cAMP formation” value in test [3] came out at 4.19 nM. The “EC50 hGlucagon-R, cAMP formation” value in test [4] stood at 0.0024 nM.
